Results on 1 molecule are retold here after patent US20200231670A1 (AGENSYS, published 2020).

For test [1], the target named is T1, Nectin-4 fragment V (amino acid residues 1-150 of human Nectin-4) (human, UniProt Q96NY8 32-150).
T1 construct: Expressed in transfected cells and tested as a reduced RIPA lysate on a Western blot; Any tag or membrane anchor of the construct is not described; also called V fragment/domain
T1 sequence: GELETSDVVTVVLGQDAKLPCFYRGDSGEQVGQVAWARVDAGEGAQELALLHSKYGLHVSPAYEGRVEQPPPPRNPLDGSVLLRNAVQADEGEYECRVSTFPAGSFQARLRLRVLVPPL
In words: Western blot of cell lysates (FIG. 13). How it is done: The cells expressing various Nectin-4 fragments were cultured and lysed in RIPA buffer. […] A 1:10000 dilution of a-GAPDH antibody (Chicken pAb, Millipore) was used detect GAPDH as a loading control. Antibodies bound to the protein bands were then detected with either 1:5000 dilution of Goat-anti-Mouse antibody conjugated with IRDye 680 (Odyssey) or 1:5000 Donkey anti-a-Chicken conjugated with IRDye 800 (Odyssey) and visualized in Odyssey system.
(In general: A western blot detects proteins with antibodies after separation by electrophoresis.)

In the next test the target is T2, human Nectin-4 (human, UniProt Q96NY8 32-510).
T2 construct: As expressed in human tumour xenograft tissues, human cell lines (T47D, NCI H322M) and Rat1(E) cells engineered to overexpress Nectin-4; Tested as FFPE sections (IHC) or as reduced lysates (Western blot); also called PVRL4; poliovirus receptor-related protein 4
T2 sequence: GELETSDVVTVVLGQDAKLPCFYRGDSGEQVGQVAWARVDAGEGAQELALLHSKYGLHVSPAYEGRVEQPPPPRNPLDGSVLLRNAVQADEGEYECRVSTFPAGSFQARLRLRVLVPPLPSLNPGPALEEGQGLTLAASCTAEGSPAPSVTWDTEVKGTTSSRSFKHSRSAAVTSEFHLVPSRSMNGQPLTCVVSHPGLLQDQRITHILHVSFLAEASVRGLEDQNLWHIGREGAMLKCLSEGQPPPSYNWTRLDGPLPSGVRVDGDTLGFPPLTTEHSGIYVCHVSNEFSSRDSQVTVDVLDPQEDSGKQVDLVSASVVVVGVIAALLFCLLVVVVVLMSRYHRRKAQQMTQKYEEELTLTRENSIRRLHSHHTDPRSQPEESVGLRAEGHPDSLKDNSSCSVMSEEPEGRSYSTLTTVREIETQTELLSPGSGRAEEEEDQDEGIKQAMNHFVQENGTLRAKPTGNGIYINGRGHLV
As to the kind of experiment: IHC score, FFPE xenograft AG-OV35, 2.5 µg/mL. How it is done: (§1) IHC staining was performed according to the following exemplary protocols. Briefly, an indirect IHC technique was used to detect Nectin-4 in the IHC assay. The samples were fixed in 10% buffered neutral formalin, processed and embedded into paraffin wax, and prepared as 4 μm tissue sections. After deparaffinization and re-hydration, sections were treated for antigen retrieval. The antigen epitopes in Nectin-4 were retrieved, for example, by application of heat to the tissue sections in an aqueous medium, commonly referred to as a Heat-Induced Epitope Retrieval (HIER) procedure. […] The tissue sections bound with primary antibodies were washed and detected with an enzyme-labeled, e.g. peroxidase-labeled, secondary antibody. […] The stained tissue sections were then scanned, imaged, and evaluated with light microscopy, for example, using an Aperio ScanScope CS (Aperio, Vista, Calif.).
(§2) To assess the level of Nectin-4 expression in the tissue sections by the level of antibody staining, stained tissue sections were assessed, evaluated, categorized, and recorded into different categories or scores according to the intensity of the IHC staining and cancer cell positivity ratio. […] Lack of specific staining was recorded as negative (“0” or interchangeably with as “−”).

For test [2], the target named is T3, recombinant extracellular domain of human Nectin-4 protein (fragment aa 31-346) (human, UniProt Q96NY8 31-346).
T3 construct: Made in E. coli with a 6xHN tag from a pET vector; The primary screen used aa 31-346; The secondary screen also used a 293FT-made fragment, printed as aa 1-346 in one place and aa 1-348 in another, with a myc-his tag; also called 6xHN-tagged Nectin 4 (aa 31-346); Nectin-4 extracellular domain fragment (amino acid residues 31-346)
T3 sequence: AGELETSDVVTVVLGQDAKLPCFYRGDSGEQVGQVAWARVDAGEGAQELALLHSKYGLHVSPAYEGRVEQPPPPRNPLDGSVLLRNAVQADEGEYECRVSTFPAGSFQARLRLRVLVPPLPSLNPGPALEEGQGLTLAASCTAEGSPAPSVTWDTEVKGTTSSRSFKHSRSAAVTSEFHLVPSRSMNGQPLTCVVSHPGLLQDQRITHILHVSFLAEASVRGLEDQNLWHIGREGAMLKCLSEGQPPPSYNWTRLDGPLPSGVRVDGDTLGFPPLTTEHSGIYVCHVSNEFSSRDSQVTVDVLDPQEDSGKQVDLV
In words: ELISA.

Test [3] has as its target T4, Nectin-2 over-expressed by engineered Rat1(E) cells (UniProt Q92692 32-538, limits assumed).
T4 construct: whole, on cells; also called Rat1(E)-Nectin-2; Rat1(E) Nectin2
T4 sequence (looked up): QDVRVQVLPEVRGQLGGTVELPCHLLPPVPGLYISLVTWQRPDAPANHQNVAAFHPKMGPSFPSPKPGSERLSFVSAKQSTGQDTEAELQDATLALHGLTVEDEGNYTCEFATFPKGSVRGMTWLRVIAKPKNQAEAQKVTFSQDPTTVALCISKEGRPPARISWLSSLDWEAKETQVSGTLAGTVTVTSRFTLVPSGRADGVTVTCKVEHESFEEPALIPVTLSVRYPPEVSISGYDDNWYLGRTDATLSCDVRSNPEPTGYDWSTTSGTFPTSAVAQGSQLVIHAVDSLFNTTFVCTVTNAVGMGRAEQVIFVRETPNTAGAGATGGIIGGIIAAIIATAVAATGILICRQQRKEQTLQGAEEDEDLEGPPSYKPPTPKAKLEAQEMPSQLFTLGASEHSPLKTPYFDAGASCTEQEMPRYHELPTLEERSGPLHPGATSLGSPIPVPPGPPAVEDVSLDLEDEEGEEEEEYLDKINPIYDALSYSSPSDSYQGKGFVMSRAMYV
In words: IHC, FFPE Rat1(E) cells expressing Nectin-2. How it is done: as §1, §2

Test [4] addresses T5, Nectin-1 over-expressed by engineered Rat1(E) cells (UniProt Q15223 31-517, limits assumed).
T5 construct: whole, on cells; also called Rat1(E)-Nectin-1; Rat1(E) Nectin1
T5 sequence (looked up): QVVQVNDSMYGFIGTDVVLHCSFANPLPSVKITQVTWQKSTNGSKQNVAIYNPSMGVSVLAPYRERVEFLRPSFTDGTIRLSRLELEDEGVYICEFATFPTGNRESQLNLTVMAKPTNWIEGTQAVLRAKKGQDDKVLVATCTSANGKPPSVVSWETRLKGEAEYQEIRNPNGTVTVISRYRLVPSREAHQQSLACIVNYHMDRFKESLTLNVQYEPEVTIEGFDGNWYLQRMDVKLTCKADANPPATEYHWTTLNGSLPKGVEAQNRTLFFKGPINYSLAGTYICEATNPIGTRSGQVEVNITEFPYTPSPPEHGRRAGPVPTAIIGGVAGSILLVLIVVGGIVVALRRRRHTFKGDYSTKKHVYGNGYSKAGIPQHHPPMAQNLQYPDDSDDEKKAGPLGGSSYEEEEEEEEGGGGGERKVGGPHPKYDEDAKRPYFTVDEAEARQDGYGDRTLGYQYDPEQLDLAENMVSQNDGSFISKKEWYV
As to the kind of experiment: IHC, FFPE Rat1(E) cells expressing Nectin-1.

B1: M22-321b41.1 anti-Nectin-4 mouse monoclonal antibody (antibody, mouse IgG2a, kappa, V domains shown)
VH: QVQLQQSGAELARPGASVKLSCKASGYTFTTYWMQWVKQRPGQGLEWIGSIYPGDGDTRYTQKFKGKATLTADKSSSTAYIQLSTLASEDSAVYYCAREYYGLDYWGQGTTLTVSS
VL: DIVMTQAAFSNPVTLGTSASISCRSSKSLLHSNGITYLYWYLQKPGQSPQLLIYHMSNLASGVPDRFTSSGSGTDFTLRISRVEAEDVGVYYCAQNLELPFTFGGGTKLETKR
notes: Mouse IgG2a kappa from hybridoma M22-321b41.1 (ATCC PTA-124245), protein A purified; also called mAb M22-321b41.1; M22-321b1.1
For the molecule B1, the binding result was “binds” in test [1]; “binds” in the test with human Nectin-4; “binds” in test [2]; “no binding (tested: 2.5 µg/mL)” in test [3]; “no binding (tested: 2.5 µg/mL)” in test [4].
